Results from paper PMC12375101.

Tests used:
Aurora A [1] = molecular target: Aurora A (UniProt O14965); assay: GST-Aurora A pull-down of MBP-Bora; details: reference: unphosphorylated MBP-Bora; sites S59
Aurora A [2] = molecular target: Aurora A (UniProt O14965); assay: GFP co-IP, Aurora A immunoblot; details: reference: wild type Bora-GFP; sites S59
Aurora A [3] = molecular target: Aurora A (UniProt O14965); assay: Myc co-IP, Aurora A immunoblot; details: reference: wild type Bora-Myc; sites S59
Aurora A [4] = molecular target: Aurora A (UniProt O14965); assay: co-IP of Bora-GFP, Aurora A immunoblot; details: reference: wild type Bora-GFP; sites S59

Substance | binding against the reference (Aurora A [1]) | binding against the reference (Aurora A [2]) | binding against the reference (Aurora A [3]) | binding against the reference (Aurora A [4])
Bora (from UniProt Q6PGQ7) MBP-Bora-S59ph (genetic code expansion) | stronger |  |  | 
Bora (from UniProt Q6PGQ7) S59A |  | weaker | weaker | weaker
